B1: Guanyl-specific ribonuclease Sa, P05798 (parent)
chain: DVSGTVCLSALPPEATDTLNLIASDGPFPYSQDGVVFQNRESVLPTQSYGYYHEYTVITPGARTRGTRRIITGEATQEDYYTGDHYATFSLIDQTC
B2: Guanyl-specific ribonuclease Sa3, P30289 (parent)
chain: MRIPPRLVALAGAAAVAATLIAGPVAAAAPASHAVAASSAASASVKAVGRVCYSALPSQAHDTLDLIDEGGPFPYSQDGVVFQNREGLLPAHSTGYYHEYTVITPGSPTRGARRIITGQQWQEDYYTADHYASFRRVDFAC

Variants of: B1
Details: Kitasatospora aureofaciens; pH 7; 25 °C; Thermal; CD; MOPS 30 mM; reversible: yes(>95 %); structure 1RGG; whole UniProt chain shown

| Variant | ddG of mutation (higher = less stable) [kcal/mol] |
| --- | --- |
| DVSGTVCLSALPPEATDTLNLIASDGPFPFSQDGVVFQNRESVLPTQSYGYYHEYTVITPGARTRGTRRIITGEATQEDYYTGDHYATFSLIDQTC [Y30F] | -0.4 |
| DVSGTVCLSALPPEATDTLNLIASDGPFPYSQDGVVFQNRESVLPTQSFGYYHEYTVITPGARTRGTRRIITGEATQEDYYTGDHYATFSLIDQTC [Y49F] | 0.2 |
| DVSGTVCLSALPPEATDTLNLIASDGPFPYSQDGVVFQNRESVLPTQSYGYFHEYTVITPGARTRGTRRIITGEATQEDYYTGDHYATFSLIDQTC [Y52F] | 3.6 |
| DVSGTVCLSALPPEATDTLNLIASDGPFPYSQDGVVFQNRESVLPTQSYGYYHEFTVITPGARTRGTRRIITGEATQEDYYTGDHYATFSLIDQTC [Y55F] | 0.6 |
| DVSGTVCLSALPPEATDTLNLIASDGPFPYSQDGVVFQNRESVLPTQSYGYYHEYTVITPGARTRGTRRIITGEATQEDFYTGDHYATFSLIDQTC [Y80F] | 1.5 |
| DVSGTVCLSALPPEATDTLNLIASDGPFPYSQDGVVFQNRESVLPTQSYGYYHEYTVITPGARTRGTRRIITGEATQEDYFTGDHYATFSLIDQTC [Y81F] | 1.2 |
| DVSGTVCLSALPPEATDTLNLIASDGPFPYSQDGVVFQNRESVLPTQSYGYYHEYTVITPGARTRGTRRIITGEATQEDYYTGDHFATFSLIDQTC [Y86F] | 0.3 |

Variants of: B2
Details: Kitasatospora aureofaciens; pH 7; 25 °C; Thermal; CD; MOPS 30 mM; reversible: yes(>95 %); structure 1MGR; whole UniProt chain shown

| Variant | ddG of mutation (higher = less stable) [kcal/mol] |
| --- | --- |
| MRIPPRLVALAGAAAVAATLIAGPVAAAAPASHAVAASSAASASVKAVGRVCYSALPSQAHDTLDLIDEGGPFPFSQDGVVFQNREGLLPAHSTGYYHEYTVITPGSPTRGARRIITGQQWQEDYYTADHYASFRRVDFAC [Y75F] | -0.5 |
| MRIPPRLVALAGAAAVAATLIAGPVAAAAPASHAVAASSAASASVKAVGRVCYSALPSQAHDTLDLIDEGGPFPYSQDGVVFQNREGLLPAHSTGYFHEYTVITPGSPTRGARRIITGQQWQEDYYTADHYASFRRVDFAC [Y97F] | 2.1 |
| MRIPPRLVALAGAAAVAATLIAGPVAAAAPASHAVAASSAASASVKAVGRVCYSALPSQAHDTLDLIDEGGPFPYSQDGVVFQNREGLLPAHSTGYYHEFTVITPGSPTRGARRIITGQQWQEDYYTADHYASFRRVDFAC [Y100F] | 0.7 |
| MRIPPRLVALAGAAAVAATLIAGPVAAAAPASHAVAASSAASASVKAVGRVCYSALPSQAHDTLDLIDEGGPFPYSQDGVVFQNREGLLPAHSTGYYHEYTVITPGSPTRGARRIITGQQWQEDFYTADHYASFRRVDFAC [Y125F] | 1.5 |
| MRIPPRLVALAGAAAVAATLIAGPVAAAAPASHAVAASSAASASVKAVGRVCYSALPSQAHDTLDLIDEGGPFPYSQDGVVFQNREGLLPAHSTGYYHEYTVITPGSPTRGARRIITGQQWQEDYFTADHYASFRRVDFAC [Y126F] | 1 |
| MRIPPRLVALAGAAAVAATLIAGPVAAAAPASHAVAASSAASASVKAVGRVCYSALPSQAHDTLDLIDEGGPFPYSQDGVVFQNREGLLPAHSTGYYHEYTVITPGSPTRGARRIITGQQWQEDYYTADHFASFRRVDFAC [Y131F] | 0 |
